The target in this data set is T1, MBNL1 ZnF3/4 (Homo sapiens, UniProt Q9NR56-2 178-246).
T1 sequence: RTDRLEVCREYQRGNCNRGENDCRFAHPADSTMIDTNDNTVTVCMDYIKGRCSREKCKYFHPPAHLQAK
Put plainly: intrinsic tyrosine fluorescence quenching.

Here are results for one molecule from article PMC4689322.

Usually Kd stands for the free concentration of one partner at which half of the binding sites on the other are occupied at equilibrium, for simple one-to-one binding. High values mean a looser complex, low ones a tighter complex.

UCGCUUUUCCCCUCCGCU (ssRNA) [hcTNT 18-nt (S10)] gave a dissociation constant Kd of 0.04 ± 0.01 µM.
